In publication PMC5979038:

Experiments:
[1] = target: FtsZ-YFP-mts (E. coli); test: single-molecule TIRF residence time; subunits labelled with GFP-Booster Atto647N in filaments on the bilayer, about 0.2 μM protein, with GTP, 5 mM free Mg2+ (high-density mesh)
[2] = target: FtsZ-YFP-mts (E. coli); test: AUC; sedimentation velocity, 7 μM protein, working buffer, 4 mM GTP and 5 mM Mg2+; monomers to higher-order species
[3] = target: FtsZ-YFP-mts (E. coli); test: single-molecule TIRF residence time; subunits labelled with GFP-Booster Atto647N in filaments on the bilayer, about 0.2 μM protein, 4 mM GTP, 1 mM free Mg2+ (dynamic rings); double exponential fit with photobleaching term

Substance: FtsZ-YFP-mts
- mean residence time of single subunits within the filaments on the membrane [1]: 15.1 s
- percent of protein in higher-order species [2]: 70%
- mean residence time of single subunits within the filaments on the membrane [3]: 11.5 s
